{"source": "the Human Domainome abundance scans (Beltran et al. 2025)", "note": "± gives the uncertainty stated by the source.", "data": [{"assay": "abundance fitness (aPCA) (normalised: wild type 0, dead -1); higher = more abundant; growth selection in yeast, the domain comes from the species named", "details": "Homo sapiens", "values": [{"substance": "DnaJ homolog subfamily B member 1 D65E, P25685", "abundance fitness": "-0.152 ± 0.2"}, {"substance": "DnaJ homolog subfamily B member 1 D65F, P25685", "abundance fitness": "-0.275 ± 0.18"}, {"substance": "DnaJ homolog subfamily B member 1 D65G, P25685", "abundance fitness": "-0.197 ± 0.11"}, {"substance": "DnaJ homolog subfamily B member 1 D65I, P25685", "abundance fitness": "-0.387 ± 0.1"}, {"substance": "DnaJ homolog subfamily B member 1 D65L, P25685", "abundance fitness": "-0.116 ± 0.085"}, {"substance": "DnaJ homolog subfamily B member 1 D65M, P25685", "abundance fitness": "-0.162 ± 0.13"}, {"substance": "DnaJ homolog subfamily B member 1 D65N, P25685", "abundance fitness": "-0.222 ± 0.19"}, {"substance": "DnaJ homolog subfamily B member 1 D65P, P25685", "abundance fitness": "-0.164 ± 0.11"}, {"substance": "DnaJ homolog subfamily B member 1 D65Q, P25685", "abundance fitness": "-0.124 ± 0.11"}, {"substance": "DnaJ homolog subfamily B member 1 D65R, P25685", "abundance fitness": "-0.163 ± 0.1"}, {"substance": "DnaJ homolog subfamily B member 1 D65S, P25685", "abundance fitness": "-0.158 ± 0.18"}, {"substance": "DnaJ homolog subfamily B member 1 D65T, P25685", "abundance fitness": "-0.228 ± 0.11"}, {"substance": "DnaJ homolog subfamily B member 1 D65V, P25685", "abundance fitness": "-0.262 ± 0.1"}, {"substance": "DnaJ homolog subfamily B member 1 D65W, P25685", "abundance fitness": "-0.358 ± 0.19"}, {"substance": "DnaJ homolog subfamily B member 1 D65Y, P25685", "abundance fitness": "-0.261 ± 0.13"}, {"substance": "DnaJ homolog subfamily B member 1 E18A, P25685", "abundance fitness": "-0.067 ± 0.074"}, {"substance": "DnaJ homolog subfamily B member 1 E18D, P25685", "abundance fitness": "0.034 ± 0.16"}, {"substance": "DnaJ homolog subfamily B member 1 E18G, P25685", "abundance fitness": "-0.162 ± 0.066"}, {"substance": "DnaJ homolog subfamily B member 1 E18H, P25685", "abundance fitness": "-0.066 ± 0.28"}, {"substance": "DnaJ homolog subfamily B member 1 E18I, P25685", "abundance fitness": "-0.173 ± 0.14"}, {"substance": "DnaJ homolog subfamily B member 1 E18K, P25685", "abundance fitness": "-0.205 ± 0.11"}, {"substance": "DnaJ homolog subfamily B member 1 E18L, P25685", "abundance fitness": "-0.21 ± 0.071"}, {"substance": "DnaJ homolog subfamily B member 1 E18M, P25685", "abundance fitness": "-0.188 ± 0.074"}, {"substance": "DnaJ homolog subfamily B member 1 E18N, P25685", "abundance fitness": "-0.045 ± 0.18"}, {"substance": "DnaJ homolog subfamily B member 1 E18Q, P25685", "abundance fitness": "-0.231 ± 0.083"}, {"substance": "DnaJ homolog subfamily B member 1 E18S, P25685", "abundance fitness": "-0.093 ± 0.074"}, {"substance": "DnaJ homolog subfamily B member 1 E18T, P25685", "abundance fitness": "-0.081 ± 0.15"}, {"substance": "DnaJ homolog subfamily B member 1 E18V, P25685", "abundance fitness": "-0.209 ± 0.061"}, {"substance": "DnaJ homolog subfamily B member 1 E18W, P25685", "abundance fitness": "-0.268 ± 0.061"}, {"substance": "DnaJ homolog subfamily B member 1 E19A, P25685", "abundance fitness": "0.022 ± 0.08"}, {"substance": "DnaJ homolog subfamily B member 1 E19C, P25685", "abundance fitness": "-0.291 ± 0.12"}, {"substance": "DnaJ homolog subfamily B member 1 E19D, P25685", "abundance fitness": "-0.089 ± 0.092"}, {"substance": "DnaJ homolog subfamily B member 1 E19F, P25685", "abundance fitness": "-1.06 ± 0.08"}, {"substance": "DnaJ homolog subfamily B member 1 E19G, P25685", "abundance fitness": "-0.539 ± 0.078"}, {"substance": "DnaJ homolog subfamily B member 1 E19H, P25685", "abundance fitness": "-0.363 ± 0.14"}, {"substance": "DnaJ homolog subfamily B member 1 E19I, P25685", "abundance fitness": "-0.659 ± 0.12"}, {"substance": "DnaJ homolog subfamily B member 1 E19K, P25685", "abundance fitness": "-0.396 ± 0.099"}, {"substance": "DnaJ homolog subfamily B member 1 E19L, P25685", "abundance fitness": "-0.32 ± 0.069"}, {"substance": "DnaJ homolog subfamily B member 1 E19M, P25685", "abundance fitness": "-0.199 ± 0.1"}, {"substance": "DnaJ homolog subfamily B member 1 E19N, P25685", "abundance fitness": "-0.273 ± 0.11"}, {"substance": "DnaJ homolog subfamily B member 1 E19P, P25685", "abundance fitness": "-1.29 ± 0.11"}, {"substance": "DnaJ homolog subfamily B member 1 E19Q, P25685", "abundance fitness": "0.118 ± 0.12"}, {"substance": "DnaJ homolog subfamily B member 1 E19R, P25685", "abundance fitness": "-0.452 ± 0.083"}, {"substance": "DnaJ homolog subfamily B member 1 E19S, P25685", "abundance fitness": "-0.18 ± 0.069"}, {"substance": "DnaJ homolog subfamily B member 1 E19T, P25685", "abundance fitness": "-0.36 ± 0.073"}, {"substance": "DnaJ homolog subfamily B member 1 E19V, P25685", "abundance fitness": "-0.491 ± 0.093"}, {"substance": "DnaJ homolog subfamily B member 1 E19W, P25685", "abundance fitness": "-1.25 ± 0.17"}, {"substance": "DnaJ homolog subfamily B member 1 E19Y, P25685", "abundance fitness": "-1.06 ± 0.14"}, {"substance": "DnaJ homolog subfamily B member 1 E38A, P25685", "abundance fitness": "-0.29 ± 0.26"}, {"substance": "DnaJ homolog subfamily B member 1 E38C, P25685", "abundance fitness": "-0.027 ± 0.11"}, {"substance": "DnaJ homolog subfamily B member 1 E38D, P25685", "abundance fitness": "-0.287 ± 0.24"}, {"substance": "DnaJ homolog subfamily B member 1 E38F, P25685", "abundance fitness": "-0.127 ± 0.12"}, {"substance": "DnaJ homolog subfamily B member 1 E38G, P25685", "abundance fitness": "-0.068 ± 0.098"}, {"substance": "DnaJ homolog subfamily B member 1 E38H, P25685", "abundance fitness": "0.017 ± 0.2"}, {"substance": "DnaJ homolog subfamily B member 1 E38I, P25685", "abundance fitness": "-0.034 ± 0.15"}, {"substance": "DnaJ homolog subfamily B member 1 E38L, P25685", "abundance fitness": "-0.099 ± 0.061"}, {"substance": "DnaJ homolog subfamily B member 1 E38M, P25685", "abundance fitness": "-0.041 ± 0.1"}, {"substance": "DnaJ homolog subfamily B member 1 E38N, P25685", "abundance fitness": "-0.179 ± 0.2"}, {"substance": "DnaJ homolog subfamily B member 1 E38P, P25685", "abundance fitness": "-0.342 ± 0.14"}, {"substance": "DnaJ homolog subfamily B member 1 E38R, P25685", "abundance fitness": "-0.172 ± 0.091"}, {"substance": "DnaJ homolog subfamily B member 1 E38S, P25685", "abundance fitness": "-0.106 ± 0.083"}, {"substance": "DnaJ homolog subfamily B member 1 E38T, P25685", "abundance fitness": "-0.041 ± 0.089"}, {"substance": "DnaJ homolog subfamily B member 1 E38V, P25685", "abundance fitness": "-0.006 ± 0.096"}, {"substance": "DnaJ homolog subfamily B member 1 E38W, P25685", "abundance fitness": "-0.019 ± 0.081"}, {"substance": "DnaJ homolog subfamily B member 1 E42A, P25685", "abundance fitness": "0.002 ± 0.077"}, {"substance": "DnaJ homolog subfamily B member 1 E42C, P25685", "abundance fitness": "-0.048 ± 0.097"}, {"substance": "DnaJ homolog subfamily B member 1 E42D, P25685", "abundance fitness": "0.116 ± 0.11"}, {"substance": "DnaJ homolog subfamily B member 1 E42F, P25685", "abundance fitness": "-0.171 ± 0.1"}, {"substance": "DnaJ homolog subfamily B member 1 E42G, P25685", "abundance fitness": "-0.153 ± 0.097"}, {"substance": "DnaJ homolog subfamily B member 1 E42H, P25685", "abundance fitness": "-0.003 ± 0.098"}, {"substance": "DnaJ homolog subfamily B member 1 E42I, P25685", "abundance fitness": "-0.105 ± 0.12"}, {"substance": "DnaJ homolog subfamily B member 1 E42K, P25685", "abundance fitness": "0.301 ± 0.14"}, {"substance": "DnaJ homolog subfamily B member 1 E42L, P25685", "abundance fitness": "0.086 ± 0.055"}, {"substance": "DnaJ homolog subfamily B member 1 E42M, P25685", "abundance fitness": "0.038 ± 0.079"}]}]}
